Data published in the supplement of paper PMC6757056.
± gives the standard deviation of the averaged measurements.

B1: library; a variant is named by its letters at N, in order (parent)
chain: GCUGUCACCGGUGCUUGGUACGUUAUAUUCAGCCGGUCUGAUGAGUCUNNNNNNAGACGAAACAGC
B2: library; a variant is named by its letters at N, in order (parent)
chain: GCUGUCACCGAGAAACUGUGAAGUAUAUCUUAAACCUGGGCACUUAAAAGAUAUAUGGAGUUAGUAGUGCAACCUGCUCGGUCUGAUGAGUCCNNNNNNGGACGAAACAGC

Legend:
[1] = variants of: B1; experiment: normalized RNA/DNA level without ligand (relative to sTRSVctl = 100) (log10 (% of sTRSVctl)); HEK293T overexpressing SLC46A1; higher = less ribozyme self-cleavage, higher mRNA level; conditions: without (6R,S)-folinic acid; ligand present: no
In short: (§1)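 Library plasmids carrying ribozyme switches linked to mCherry, or to eGFP in some ligand experiments, were transfected into HEK293T at 4 µg per 6-well well, with any ligand added 1 h earlier. Seventy-two hours on, total RNA was extracted with EDTA and reverse-transcribed, amplified, barcoded and sequenced. RNA level was RNA over DNA reads normalized to a spiked-in non-cleaving sequence or to the top sequences, then scaled and log-transformed. The top set was 25 sequences, the transform was ×100 and log10, and sequences needed ≥100 DNA reads.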

[2] = variants of: B1; experiment: normalized RNA/DNA level with ligand (relative to sTRSVctl = 100) (log10 (% of sTRSVctl)); HEK293T overexpressing SLC46A1; ligand concentration (+) RNA-Seq: 6 mM; higher = less ribozyme self-cleavage, higher mRNA level; conditions: with (6R,S)-folinic acid; ligand present: yes
In short: as §1

[3] = variants of: B2; experiment: FACS-Seq fitted mean relative fluorescence mCherry/BFP without ligand (log10 relative fluorescence); HEK293T; ligand: cyclic di-GMP (c-di-GMP-II aptamer); higher = higher reporter protein expression; conditions: ligand present: no
Procedure: (§2)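 Hammerhead (sTRSV) ribozyme switch libraries with a ligand aptamer grafted on stem I and a randomized N4-6 loop II, cloned into the 3' UTR of mCherry and transiently transfected into HEK293T cells; RNA-Seq 72 h post transfection with ligand added 1 h before transfection; RNA read count / plasmid DNA read count normalized to the non-cleaving sTRSVctl (x100), log10; sequences with >100 DNA reads. FACS-Seq: lentiviral library sorted into 6 bins after 48 h ligand, log-normal fit mean of mCherry/BFP scaled to controls. Printed sequences are partial switch sequences.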

[4] = variants of: B2; experiment: normalized RNA/DNA level without ligand (relative to sTRSVctl = 100) (log10 (% of sTRSVctl)); HEK293T; ligand: cyclic di-GMP (c-di-GMP-II aptamer); higher = less ribozyme self-cleavage, higher mRNA level; conditions: reporter: mCherry (pCS4076), ligand present: no
Procedure: as §2

[5] = variants of: B2; experiment: FACS-Seq fitted mean relative fluorescence mCherry/BFP with ligand (log10 relative fluorescence); HEK293T; ligand: cyclic di-GMP (c-di-GMP-II aptamer); ligand concentration (+) FACS-Seq: 1 mM; higher = higher reporter protein expression; conditions: ligand present: yes
Procedure: as §2

[6] = variants of: B2; experiment: normalized RNA/DNA level with ligand (relative to sTRSVctl = 100) (log10 (% of sTRSVctl)); HEK293T; ligand: cyclic di-GMP (c-di-GMP-II aptamer); ligand concentration (+) RNA-Seq: 1 mM; higher = less ribozyme self-cleavage, higher mRNA level; conditions: reporter: mCherry (pCS4076), ligand present: yes
Procedure: as §2

Variant	normalized RNA/DNA level without ligand (log10) [1]	normalized RNA/DNA level with ligand (log10) [2]	FACS-Seq fitted mean (log10) [3]	normalized RNA/DNA level without ligand (log10) [4]	FACS-Seq fitted mean (log10) [5]	normalized RNA/DNA level with ligand (log10) [6]
CCACGG	2.06 ± 0.029	2.04 ± 0.048				
AGUCCA	2.022 ± 0.0089	2.0202 ± 0.002				
AGACUG	2.003 ± 0.0063	2.01 ± 0.04				
CUCCCG	2.067 ± 0.0068	2.0818 ± 0.00082				
UGGCUC	2.07 ± 0.024	2.04 ± 0.023				
CGCCGA	2.027 ± 0.0027	2.08 ± 0.044				
CCCCCC	2.0694 ± 0.0015	2.02 ± 0.063				
AUAGGA	1.91 ± 0.022	1.99 ± 0.053				
GCUGCU	2.04 ± 0.027	2.055 ± 0.018				
GGGGUC	2.023 ± 0.0058	2.04 ± 0.048				
GUCCCA	2.039 ± 0.0032	2.016 ± 0.0029				
CCAUGA	1.981 ± 0.0035	2 ± 0.059				
UGUAAC	1.95 ± 0.034	1.99 ± 0.038				
AUCUCA	2.02 ± 0.022	2.018 ± 0.0082				
CCCAAC	2.042 ± 0.017	2.019 ± 0.017				
GCCACA	2.036 ± 0.0076	2.026 ± 0.018				
GACCUU	2.079 ± 0.013	2.04 ± 0.028				
GGAACA	2.0061 ± 0.00047	2.02 ± 0.043				
GGUGUU	2.029 ± 0.0064	2.02 ± 0.041				
ACGAUA	1.971 ± 0.0039	2.02 ± 0.036				
CCUAGU	2.074 ± 0.0064	2.06 ± 0.029				
CCCCGC	2.09 ± 0.0037	2.05 ± 0.034				
UCCAGC	2.035 ± 0.016	2.03 ± 0.022				
AGUAAC	2.003 ± 0.0042	2.01 ± 0.026				
GCCUCC	2.068 ± 0.0082	2.05 ± 0.033				
CGCGCU	2.08 ± 0.043	2.05 ± 0.047				

Variant	normalized RNA/DNA level without ligand (log10) [1]	normalized RNA/DNA level with ligand (log10) [2]	FACS-Seq fitted mean (log10) [3]	normalized RNA/DNA level without ligand (log10) [4]	FACS-Seq fitted mean (log10) [5]	normalized RNA/DNA level with ligand (log10) [6]
AGUUCG	1.953 ± 0.015	2 ± 0.025				
UCGUAU	1.97 ± 0.029	2 ± 0.07				
GACACC	2.026 ± 0.0065	1.98 ± 0.038				
CAGGUU	2 ± 0.032	2 ± 0.022				
CAGGUC	2.08 ± 0.0023	2.04 ± 0.045				
AUGCUG	1.986 ± 0.003	2 ± 0.017				
UCAGAA	1.9353 ± 0.0018	2.017 ± 0.013				
CGGGAG	1.932 ± 0.0051	2 ± 0.023				
CUGUUU	2.022 ± 0.0036	2.06 ± 0.041				
UAAACA	1.96 ± 0.02	1.994 ± 0.016				
UCAAUU	2.013 ± 0.011	2.02 ± 0.014				
ACCUAA	2.021 ± 0.013	1.994 ± 0.018				
GAAAGA			-0.392 ± 0.037	1.41 ± 0.11	-0.0161 ± 0.058	1.57 ± 0.11
GAAAGU			-0.387 ± 0.03	1.55 ± 0.044	-0.0693 ± 0.089	1.71 ± 0.095
CAACCU			-0.206 ± 0.19	1.56 ± 0.069	-0.0641 ± 0.21	1.74 ± 0.096
UAAAAG			-0.3384 ± 0.0033	1.685 ± 0.0079	-0.102 ± 0.2	1.84 ± 0.1
CAAAAC			-0.495 ± 0.03	1.58 ± 0.055	-0.278 ± 0.08	1.77 ± 0.14
CAAAAA			-0.703 ± 0.047	1.21 ± 0.087	-0.444 ± 0.071	1.46 ± 0.079
CAAAAU			-0.237 ± 0.17	1.45 ± 0.11	0.0784 ± 0.017	1.65 ± 0.085
GAACGA			-0.276 ± 0.045	1.46 ± 0.1	-0.0281 ± 0.066	1.64 ± 0.072
GAACGU			-0.419 ± 0.027	1.54 ± 0.095	-0.133 ± 0.0044	1.69 ± 0.092
CAAACA			-0.651 ± 0.025	1.34 ± 0.069	-0.439 ± 0.079	1.62 ± 0.11
GAACAG			-0.182 ± 0.12	1.753 ± 0.015	0.0981 ± 0.039	1.82 ± 0.094
CAAAGA			-0.231 ± 0.15	1.47 ± 0.074	0.00425 ± 0.022	1.68 ± 0.1
CAAAGU			0.000886 ± 0.21	1.7 ± 0.032	0.204 ± 0.087	1.79 ± 0.12
GAAGUU			-0.118 ± 0.022	1.55 ± 0.072	0.245 ± 0.074	1.7 ± 0.091
